Drawing on patent US10738094B2, “Peptides and combination of peptides for use in immunotherapy against ovarian cancer and other cancers” (immatics biotechnologies GmbH, priority 2015, dated 2020), this text covers Peptide exchange for 48 substances.

In the test the target is HLA-A*02:01 (Homo sapiens, UniProt P04439, D140Y/D185E/D98H/E176V/E277Q/G131W/G231S/I119V/I121R/I166T/I218V/L300P/L318F/N151K/N90K/P208A/P217A/Q86G/Q94H/R138H/R169H/T345S). The test can be described thus: MHC binding assay (UV-ligand exchange, beta2m ELISA). As to conditions: binding to HLA-A*02:01 ranged by peptide exchange yield (UV-ligand exchange, β2m ELISA). A digest of the protocol:
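Stabilised complexes were quantified via their β2m light chain: 100-fold-diluted monomers bound to streptavidin plates, then HRP anti-β2m at 2 ug/ml for 1 h at 37° C., TMB read at 450 nm. The value is the yield of UV-induced exchange of a photocleavable peptide for the candidate.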
For “575 (YLISQVEGHQV; listed as Homo sapiens) [compound 575]”, the Peptide exchange entry is reported as ““+++” (≥50 = +++)”.

In the case of “576 (ILLNNSGQIKL; listed as Homo sapiens) [compound 576]”, the Peptide exchange result is ““++++” (≥75% = ++++)”.

Regarding “577 (VMFEDGVLMRL; listed as Homo sapiens) [compound 577]”, the Peptide exchange result is reported as ““+++” (≥50 = +++)”.

“578 (FLDPGGPMMKL; listed as Homo sapiens) [compound 578]”: the Peptide exchange entry was ““+++” (≥50 = +++)”.

On to “579 (NLMEMVAQL; listed as Homo sapiens) [compound 579]”, for which the Peptide exchange result is ““++” (≥20% = ++)”.

Consider “580 (LLMENAERV; listed as Homo sapiens) [compound 580]”, for which the Peptide exchange result is ““++” (≥20% = ++)”.

Consider “582 (TLCDVILMV; listed as Homo sapiens) [compound 582]”, for which the Peptide exchange result is reported as ““+++” (≥50 = +++)”.

Consider “583 (ILANDGVLLAA; listed as Homo sapiens) [compound 583]”, for which the Peptide exchange result is listed as ““+++” (≥50 = +++)”.

“584 (ALAEVAAMENV; listed as Homo sapiens) [compound 584]”: the Peptide exchange entry is ““+++” (≥50 = +++)”.

Consider “585 (ALWDLAADKQTL; listed as Homo sapiens) [compound 585]”, for which the Peptide exchange entry is reported as ““++++” (≥75% = ++++)”.

Regarding “586 (KLKPGDLVGV; listed as Homo sapiens) [compound 586]”, the Peptide exchange result is given as ““+++” (≥50 = +++)”.

“587 (VMNDRLYAI; listed as Homo sapiens) [compound 587]”: the Peptide exchange entry is on record as ““+++” (≥50 = +++)”.

“588 (SLLPLSHLV; listed as Homo sapiens) [compound 588]”: the Peptide exchange entry is recorded as ““+++” (≥50 = +++)”.

Regarding “589 (KLYPQLPAEI; listed as Homo sapiens) [compound 589]”, the Peptide exchange entry was ““+++” (≥50 = +++)”.

For “590 (SLIEKLWQT; listed as Homo sapiens) [compound 590]”, the Peptide exchange entry is recorded as ““++” (≥20% = ++)”.

Take “591 (SMAELDIKL; listed as Homo sapiens) [compound 591]”: the Peptide exchange entry was ““+++” (≥50 = +++)”.

Consider “592 (RLLSAAENFL; listed as Homo sapiens) [compound 592]”, for which the Peptide exchange result is reported as ““+++” (≥50 = +++)”.

Take “593 (GLPRFGIEMV; listed as Homo sapiens) [compound 593]”: the Peptide exchange entry is ““+++” (≥50 = +++)”.

“594 (IMLKGDNITL; listed as Homo sapiens) [compound 594]”: the Peptide exchange result is given as ““+++” (≥50 = +++)”.

“595 (VLLSIYPRV; listed as Homo sapiens) [compound 595]”: the Peptide exchange result is ““+++” (≥50 = +++)”.

Regarding “596 (ALLDQTKTLAESAL; listed as Homo sapiens) [compound 596]”, the Peptide exchange result was ““+++” (≥50 = +++)”.

With “597 (KLLEGQVIQL; listed as Homo sapiens) [compound 597]”, the Peptide exchange entry was ““+++” (≥50 = +++)”.

In the case of “598 (FLFPHSVLV; listed as Homo sapiens) [compound 598]”, the Peptide exchange result was ““+++” (≥50 = +++)”.

In the case of “599 (YLLNDASLISV; listed as Homo sapiens) [compound 599]”, the Peptide exchange result is ““+++” (≥50 = +++)”.

As to “600 (ALAAPDIVPAL; listed as Homo sapiens) [compound 600]”, the Peptide exchange result is given as ““+++” (≥50 = +++)”.

As to “601 (SAFPFPVTV; listed as Homo sapiens) [compound 601]”, the Peptide exchange result is given as ““+++” (≥50 = +++)”.

With “602 (YLLEQIKLIEV; listed as Homo sapiens) [compound 602]”, the Peptide exchange entry was ““++++” (≥75% = ++++)”.

In the case of “604 (SILDRDDIFV; listed as Homo sapiens) [compound 604]”, the Peptide exchange entry is recorded as ““+++” (≥50 = +++)”.

On to “605 (KLYEAVPQL; listed as Homo sapiens) [compound 605]”, for which the Peptide exchange result was ““+++” (≥50 = +++)”.

For “606 (ALWETEVYI; listed as Homo sapiens) [compound 606]”, the Peptide exchange entry is listed as ““+++” (≥50 = +++)”.

Regarding “607 (RLYSGISGLEL; listed as Homo sapiens) [compound 607]”, the Peptide exchange entry is on record as ““+++” (≥50 = +++)”.

On to “608 (SLLSVSHAL; listed as Homo sapiens) [compound 608]”, for which the Peptide exchange result is on record as ““+++” (≥50 = +++)”.

Take “609 (ALWKQLLEL; listed as Homo sapiens) [compound 609]”: the Peptide exchange entry was ““+++” (≥50 = +++)”.

Turning to “610 (LLAPTPYIIGV; listed as Homo sapiens) [compound 610]”, the Peptide exchange entry is on record as ““+++” (≥50 = +++)”.

For “611 (YLLDDGTLVV; listed as Homo sapiens) [compound 611]”, the Peptide exchange entry was ““++++” (≥75% = ++++)”.

“612 (YLYNEGLSV; listed as Homo sapiens) [compound 612]”: the Peptide exchange entry is ““+++” (≥50 = +++)”.

“613 (RLLPPGAVVAV; listed as Homo sapiens) [compound 613]”: the Peptide exchange entry is ““+++” (≥50 = +++)”.

For the substance “614 (LLLPDQPPYHL; listed as Homo sapiens) [compound 614]”, the Peptide exchange entry is ““+++” (≥50 = +++)”.

With “615 (VLPPDTDPA; listed as Homo sapiens) [compound 615]”, the Peptide exchange entry was ““++” (≥20% = ++)”.

Turning to “616 (VLIDEVESL; listed as Homo sapiens) [compound 616]”, the Peptide exchange entry is reported as ““+++” (≥50 = +++)”.

Take “617 (ALMYESEKVGV; listed as Homo sapiens) [compound 617]”: the Peptide exchange entry is ““+++” (≥50 = +++)”.

As to “618 (VLFDSESIGIYV; listed as Homo sapiens) [compound 618]”, the Peptide exchange result is given as ““+++” (≥50 = +++)”.

Regarding “619 (ALQDRVPLA; listed as Homo sapiens) [compound 619]”, the Peptide exchange entry is on record as ““+++” (≥50 = +++)”.

For “620 (KLLNKIYEA; listed as Homo sapiens) [compound 620]”, the Peptide exchange entry is given as ““++++” (≥75% = ++++)”.

Consider “621 (VLMDRLPSLL; listed as Homo sapiens) [compound 621]”, for which the Peptide exchange result is recorded as ““++++” (≥75% = ++++)”.

“622 (RLLGEEVVRVLQA; listed as Homo sapiens) [compound 622]”: the Peptide exchange result is ““+++” (≥50 = +++)”.

For “623 (YLVEDIQHI; listed as Homo sapiens) [compound 623]”, the Peptide exchange entry is recorded as ““+++” (≥50 = +++)”.

Take “635 (SLDSTLHAV; listed as Homo sapiens) [compound 635]”: the Peptide exchange result is ““+++” (≥50 = +++)”.
